The numbers were not newly measured in article PMC11190312, which cites them from elsewhere.

Data set [1] concerns the target nucleoprotein (SARS-CoV-1) (UniProt P59595). The following applies: cited from earlier work.
In data set [2] the target is nucleoprotein (SARS-CoV-2) (UniProt P0DTC9). The following applies: cited from earlier work.

The term Kd denotes the equilibrium constant for the complex coming apart. On to MASP-2 (from UniProt O00187), for which the Kd in data set [1] was 268 nM; in data set [2] it was 514 nM.
